Assay [1] addresses T1, 人补体D因子 (human complement Factor D) (human, UniProt P00746 26-253).
T1 construct: Bought protein; also called 人D因子; human CFD
Description: SPR (Biacore T200), Fab captured on CM5 chip.

Assay [2] deals with T1, 人补体D因子 (human complement Factor D). As to the kind of experiment: SPR (Biacore T200), full-length antibody captured by anti-human IgG Fc on CM5, antigen in flow, 1:1 model.
Assay [3] shares this target. Description: ELISA on coated human Factor D and BLI.

T1 sequence (P00746 26-253 limits assumed): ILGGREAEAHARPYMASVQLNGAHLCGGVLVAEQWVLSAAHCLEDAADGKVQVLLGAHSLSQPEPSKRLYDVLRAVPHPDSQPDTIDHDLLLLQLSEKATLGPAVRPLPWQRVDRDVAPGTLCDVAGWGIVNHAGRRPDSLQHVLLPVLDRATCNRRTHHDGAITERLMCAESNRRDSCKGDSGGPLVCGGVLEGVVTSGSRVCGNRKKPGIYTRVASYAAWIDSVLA

B1: 人源化Fab克隆 AS01237 (Fab, V domains shown)
VH: EVQLVQSGAEVKKPGASVKVSCKASGYTFTSYVINWVRQAPGQGLEWMGYINPYIDDSEYNEKFEGRVTMTRNTSISTAYMELSSLRSEDTAVYYCAREGPAFAYWGQGTLVTVSS
VL: DIVMTQTPLSLSVTPGQPASISCRSSQNLVHSNGDTYLEWYQQKPGQPPKLLIYKVSTRFSGVPDRFSGSGSGTDFTLKISRVEAEDVGVYYCFQGSHVPPTFGQGTKVEIK
notes: Fab fragment with a SASA tag, as screened on Biacore; also called AS01237 Fab
Regarding B1, the binding result in assay [1] is “binds”.

B2: 抗人D因子人源化抗体 AS01326 (全长抗体) (antibody, V domains shown)
VH: QVQLVQSGSELKKPGASVKVSCKASGYTFTSYVINWVRQMPGKGLEWMGYINPYIDDSEYNEKFEGRVTMTRDTSISTAYMELSRLRSDDTAVYYCAREGPAFAYWGQGTLVTVSS
VL: DVVMTQSPLSLPVTLGQPASISCRSSQNLVHSNGDTYLEWYLQKPGQPPQLLIYKVSTRFSGVPDRFSGSGSGTDFTLKISRVEAEDFGVYYCFQGSHVPPTFGQGTKVEIK
notes: Full-length antibody from pTT5 in HEK293, protein A purified, captured by anti-human IgG Fc
Take B2: the binding result in assay [2] is on record as “binds”.

B3: 抗人D因子人源化抗体 AS01237 (全长抗体) (antibody, V domains shown)
VH: EVQLVQSGAEVKKPGASVKVSCKASGYTFTSYVINWVRQAPGQGLEWMGYINPYIDDSEYNEKFEGRVTMTRNTSISTAYMELSSLRSEDTAVYYCAREGPAFAYWGQGTLVTVSS
VL: DIVMTQTPLSLSVTPGQPASISCRSSQNLVHSNGDTYLEWYQQKPGQPPKLLIYKVSTRFSGVPDRFSGSGSGTDFTLKISRVEAEDVGVYYCFQGSHVPPTFGQGTKVEIK
notes: as for B2
Consider B3, for which the binding result in assay [2] is on record as “binds”.

B4: 人源化Fab克隆 AS01326 (Fab, V domains shown)
VH: QVQLVQSGSELKKPGASVKVSCKASGYTFTSYVINWVRQMPGKGLEWMGYINPYIDDSEYNEKFEGRVTMTRDTSISTAYMELSRLRSDDTAVYYCAREGPAFAYWGQGTLVTVSS
VL: DVVMTQSPLSLPVTLGQPASISCRSSQNLVHSNGDTYLEWYLQKPGQPPQLLIYKVSTRFSGVPDRFSGSGSGTDFTLKISRVEAEDFGVYYCFQGSHVPPTFGQGTKVEIK
notes: Fab fragment with a SASA tag, as screened on Biacore; also called AS01326 Fab
Turning to B4, in assay [1], the binding result was “binds”.

B5: 人源化Fab克隆 AS01328 (Fab, V domains shown)
VH: QVQLVQSGSELKKPGASVKVSCKASGYTFTSYVINWVRQATGQGLEWMGYINPYIDDSEYNEKFEGRVTMTRDTSTSTVYMELSSLRSEDTAVYYCAREGPAFAYWGQGTLVTVSS
VL: DIVMTQTPLSLSVTPGEPASISCRSSQNLVHSNGDTYLEWYLQKPGQAPRLLIYKVSTRFSGVPDRFSGSGSGTDFTLKISRVEAEDVGVYYCFQGSHVPPTFGQGTKVEIK
notes: Fab fragment with a SASA tag, as screened on Biacore; also called AS01328 Fab
Consider B5, for which, in assay [1], the binding result was “binds”.

B6: 抗人D因子人源化抗体 AS01328 (全长抗体) (antibody, V domains shown)
VH: QVQLVQSGSELKKPGASVKVSCKASGYTFTSYVINWVRQATGQGLEWMGYINPYIDDSEYNEKFEGRVTMTRDTSTSTVYMELSSLRSEDTAVYYCAREGPAFAYWGQGTLVTVSS
VL: DIVMTQTPLSLSVTPGEPASISCRSSQNLVHSNGDTYLEWYLQKPGQAPRLLIYKVSTRFSGVPDRFSGSGSGTDFTLKISRVEAEDVGVYYCFQGSHVPPTFGQGTKVEIK
notes: as for B2
With B6, in assay [2], the binding result was “binds”.

B7: 抗人D因子鼠源单克隆抗体 Mab25 (antibody, V domains shown)
VH: AVQLQQSGPELVKPGASVKMSCKASGYTFTSYVINWMKQKPGQGLEWIGYINPYIDDSEYNEKFEGKATLTSDKTSSIAYMELSSLTSEDSAVYYCAREGPAFAYWGQGTLVTVSA
VL: DILLTQTPLSLPVSLGDHASVSCRSSQNLVHSNGDTYLEWYLQKPGQSPKLLIYKVSTRFSGVPDRFSGSGSGTDFTLKISRVEAEDLGVYYCFQGSHVPPTFGGGTKLEIK
notes: Mouse hybridoma antibody; The heavy chain was cloned with a primer for the mouse IgG1 constant region; also called 杂交瘤细胞株25
B7: the binding result in assay [3] is reported as “binds”.

B8: 抗人D因子嵌合抗体 (Mab25的嵌合抗体, 全长) (antibody, V domains shown)
VH: AVQLQQSGPELVKPGASVKMSCKASGYTFTSYVINWMKQKPGQGLEWIGYINPYIDDSEYNEKFEGKATLTSDKTSSIAYMELSSLTSEDSAVYYCAREGPAFAYWGQGTLVTVSA
VL: DILLTQTPLSLPVSLGDHASVSCRSSQNLVHSNGDTYLEWYLQKPGQSPKLLIYKVSTRFSGVPDRFSGSGSGTDFTLKISRVEAEDLGVYYCFQGSHVPPTFGGGTKLEIK
notes: Chimeric form of Mab25 (mouse variable regions on human constant regions), compared with the humanised antibodies in the Biacore assay
With B8, in assay [2], the binding result is on record as “binds”.

For the origin of these results see patent publication CN106905431A (XUHUA (SHANGHAI) BIOLOGICAL RES AND DEV CENTER CO LTD, dated 2017).
